According to patent US20250076311A1 (Chugai, published 2025):
Positions count from the first letter of the chain named. One block for each binder: values may come before it.

Experiments:
[1] = target: T1, cynomolgus monkey FcγRIIb extracellular domain with C-terminal His-tag (cynomolgus monkey); experiment: SPR (Biacore), antibody captured, FcgR analyte
T1 construct: also called cyno FcgRIIb; cynoFcγRIIb
T1 chain: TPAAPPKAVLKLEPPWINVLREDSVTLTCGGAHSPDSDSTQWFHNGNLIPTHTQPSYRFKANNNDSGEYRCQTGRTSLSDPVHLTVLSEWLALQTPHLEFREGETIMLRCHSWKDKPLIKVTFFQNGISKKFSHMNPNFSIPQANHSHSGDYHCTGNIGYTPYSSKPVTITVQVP

[2] = target: T2, human FcγRIIIaV extracellular domain, His-tagged (human, UniProt P08637 17-208); experiment: SPR (BIACORE), antibody captured, FcγR analyte, 25 C; KD of SG1 divided by KD of variant
T2 construct: also called human FcγRIIIa (V158); FcgRIIIaV

[3] = target: T3, human FcγRIIaH extracellular domain, His-tagged (human, UniProt P12318 34-217); experiment: as above
T3 construct: also called human FcγRIIa (type H); FcgRIIaH
T3 sequence: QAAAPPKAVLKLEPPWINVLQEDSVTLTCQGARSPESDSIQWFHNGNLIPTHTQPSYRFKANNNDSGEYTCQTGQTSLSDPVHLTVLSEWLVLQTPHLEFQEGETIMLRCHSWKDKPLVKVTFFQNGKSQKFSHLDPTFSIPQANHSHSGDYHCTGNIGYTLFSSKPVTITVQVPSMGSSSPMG

[4] = target: T4, human FcγRIIb extracellular domain, His-tagged (human, UniProt P31994 43-217); experiment: as above
T4 construct: also called human FcgRIIb; FcgRIIb (human)
T4 sequence: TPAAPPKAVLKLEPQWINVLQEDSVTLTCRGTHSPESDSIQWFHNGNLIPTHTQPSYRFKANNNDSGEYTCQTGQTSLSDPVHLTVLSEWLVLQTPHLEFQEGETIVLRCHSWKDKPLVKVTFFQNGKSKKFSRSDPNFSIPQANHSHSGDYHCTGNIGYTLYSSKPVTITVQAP

Mouse latent myostatin [5] = target: T5, Mouse latent myostatin (mouse, UniProt O08689 26-267; O08689 268-376, limits assumed); experiment: SPR (Biacore T200), 37C, pH 7.4, antibody captured on ProA/G
T5 sequence 1: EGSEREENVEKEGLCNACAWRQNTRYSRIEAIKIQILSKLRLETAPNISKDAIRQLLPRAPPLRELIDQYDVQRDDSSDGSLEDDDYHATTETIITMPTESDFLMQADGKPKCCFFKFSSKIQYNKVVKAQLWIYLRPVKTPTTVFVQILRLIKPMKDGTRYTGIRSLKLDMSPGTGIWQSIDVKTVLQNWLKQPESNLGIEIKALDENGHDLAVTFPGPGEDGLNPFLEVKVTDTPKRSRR
T5 sequence 2: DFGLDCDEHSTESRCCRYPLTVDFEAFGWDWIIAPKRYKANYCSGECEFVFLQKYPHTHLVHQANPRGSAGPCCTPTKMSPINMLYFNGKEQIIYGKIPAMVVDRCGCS
Description: (§1) ProA/G (Pierce) was immobilized onto all flow cells of a CM4 chip using an amine coupling kit (GE Healthcare). All antibodies and analytes were prepared in ACES pH7.4 or pH5.8 buffer containing 20 mM ACES, 150 mM NaCl, 1.2 mM CaCl₂, 0.05% TWEEN® 20, 0.005% NaN3. […] The sensor surface was regenerated each cycle with 10 mM Glycine HCl pH1.5. Binding affinity was determined by processing and fitting the data to a 1:1 binding model using BIACORE® T200 Evaluation software, version 2.0 (GE Healthcare).

Mouse latent myostatin [6] = target: T5, Mouse latent myostatin; experiment: SPR (Biacore T200), 37C, pH 5.8, antibody captured on ProA/G
Description: as §1

T2 sequence (P08637 17-208 F176V): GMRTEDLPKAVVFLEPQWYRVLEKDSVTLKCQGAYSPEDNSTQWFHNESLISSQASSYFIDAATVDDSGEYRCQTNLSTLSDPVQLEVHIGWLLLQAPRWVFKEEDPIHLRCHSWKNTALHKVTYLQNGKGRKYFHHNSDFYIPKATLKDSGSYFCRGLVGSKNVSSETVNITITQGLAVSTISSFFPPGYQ

B2: M103205H795-MY450/M103202L889-SK1 (antibody, human IgG1, kappa, name in EU numbering)
heavy: QVTLKESGPVLVKPTETLTLTCTVSGIDLSHDDISWVRQAPGKGLEWVGIISYAGSTYYASWAKGRLTISKDTSKNQVVLTMTNMDPVDTATYYCARGVPAYSHGGDLWGQGTLVTVSSASTKGPSVFPLAPSSKSTSGGTAALGCLVKDYFPEPVTVSWNSGALTSGVHTFPAVLQSSGLYSLSSVVTVPSSSLGTQTYICNVNHKPSNTKVDKKVEPKSCDKTHTCPPCPAMELLTGPSVFLFPPKPKDTLMISRTPEVTCVVVDVSDEDPEVKFNWYVDGVEVHNAKTKPREEQYNSTYRVVSVLTVLHQDWLNGKEYKCKVSNKALPKPIEKTISKAKGQPREPQVYTLPPSREEMTKNQVSLTCLVKGFYPSDIAVEWESNGQPENNYKTTPPVLDSDGSFFLYSKLTVDKSRWQQGNVFSCSVMHEALHNHYTQKSLSLSP
light: DIVMTQSPATLSLSPGERATLSCTSSQSVYHANWLSWFQQKPGQPPKLLIYWASTLAYGVPSRFSGSGSGTDFTLTISSLQPEDAATYYCAGGYGGGRYAFGQGTKVEIKRTVAAPSVFIFPPSDEQLKSGTASVVCLLNNFYPREAKVQWKVDNALQSGNSQESVTEQDSKDSTYSLSSTLTLSKADYEKHKVYACEVTHQGLSSPVTKSFNRGEC
- KD fold (SG1 = 1) [2]: 0.2 fold
- KD fold (SG1 = 1) [3]: 5.3 fold
- KD fold (SG1 = 1) [4]: 9.8 fold

B4: MS1032LO21-SG1 (antibody, human IgG1, kappa, V domains shown)
VH: QVTLKESGPVLVKPTETLTLTCKVSGIDLSHDDISWVRQAPGKGLEWVSIISYAGSTYYASWAKGRLTISKDTSKNQVVLTMTNMDPVDTATYYCARGVPAYSHGGDLWGQGTLVTVSS
VL: DIVMTQSPATLSLSPGERATLSCTTSQSVYHENWLSWFQQKPGQPPKLLIYWASTLAYGVPSRFSGSGSGTDFTLTISSLQPEDAATYYCAGGYGGGRYAFGQGTKVEIKR
- Kd (Mouse latent myostatin [6]): 29.4 nM

The next lines start with the values.

- Kd [1]: 390 nM
B1: M103205H795-MY476/M103202L889-SK1 (antibody)
chain 1: B2 heavy with A233Y, M234P
chain 2: B2 light

- Kd (Mouse latent myostatin [5]): 0.314 nM
B3: MS1032LO10-SG1 (antibody, human IgG1, kappa, V domains shown)
VH: B4 VH with K23T, D32T, S49G, S56K, G65K
VL: B4 VL with T25S, E32A
